Data on one substance can be found in patent US20070299013.

This data set has as its system pentapeptide DYDYQ (Asp695-Tyr696-Asp697-Tyr698-Gln699 of human factor Va heavy chain).

Regarding human thrombin, the “activation of factor V by thrombin (cleavage at Arg709), SDS-PAGE and immunoblot, thrombin preincubated with 100 µM peptide” value is “the pentapeptide is a potent inhibitor of factor V activation by thrombin”.
